We go through six substances from paper PMC5859253.

What all share (test): EMSA
Conditions in all cases: HilD/H-NS EMSA: 10 mM Tris-HCl pH 8, 50 mM KCl, 1 mM DTT, 0.5 mM EDTA, 5% glycerol, 10 ug/ml BSA, ~100 ng DNA, RT 20 min; PhoP EMSA: 20 mM Tris-HCl pH 7.4 …
In general terms: Mobility shift assays separate free from complexed probe on a gel.

One series deals with PhoP-H6 (phosphorylated).
The test system of series [1] is MBP-HilD (Salmonella enterica serovar Typhimurium SL1344?).
For series [2], the system named is H-NS-FH (H-NS-3XFLAG-6XHis) (Escherichia coli EPEC E2348/69).

Some results are limits rather than exact numbers.

With ges promoter, in the series on PhoP-H6 (phosphorylated), the binding is greater than 6 µM.

grhD1 promoter (PhoP EMSA): the binding with PhoP-H6 (phosphorylated) came out at 3 µM.

Turning to grhD1 upstream region (HilD/H-NS EMSA), the binding is greater than 1 µM in series [1] and 0.5 µM in series [2].

orgB promoter: in the series on PhoP-H6 (phosphorylated), the binding was 3 µM.

For the substance sigD regulatory region, the binding in series [1] and in series [2] was greater than 1 µM in each case.

Substance ssrAB regulatory region returned a binding in series [2] of 0.25 µM.
